The supplement of paper PMC9233669
Fewer inactive variants are shown than the library holds.

Columns and labels:
biotinyl-Phe-oxazolone = test: self-aminoacylation, catalytic enhancement (BFO) (fold over background); higher = more active; k-Seq, kA / k0A0; sequences stand for … in GGGAAUGGAUCCACAUCUACGAAUUC…UUCACUGCAGACUUGACGAAGCUG
Summary of the method: (§1)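 Each biotinyl-aminoacyl-oxazolone, at 2–1250 μM, was incubated with mutagenized RNA pools (0.43 μM) carrying a 21-nt variable region. The 50 μL reactions contained HEPES/NaCl/KCl/MgCl2/CaCl2 buffer with 5% acetonitrile at pH 6.9–7.0 and ran for 90 minutes at room temperature. After streptavidin capture, RNA was measured by qPCR in triplicate and by Illumina sequencing, and catalytic enhancement was calculated as median kA over the uncatalyzed rate from a pseudo-first-order fit of per-sequence fraction reacted.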

biotinyl-Met-oxazolone = test: self-aminoacylation, catalytic enhancement (BMO) (fold over background); higher = more active; k-Seq, kA / k0A0; sequences stand for … in GGGAAUGGAUCCACAUCUACGAAUUC…UUCACUGCAGACUUGACGAAGCUG
Summary of the method: as §1

biotinyl-Ile-oxazolone = test: self-aminoacylation, catalytic enhancement (BIO) (fold over background); higher = more active; k-Seq, kA / k0A0; sequences stand for … in GGGAAUGGAUCCACAUCUACGAAUUC…UUCACUGCAGACUUGACGAAGCUG
Summary of the method: as §1

biotinyl-Trp-oxazolone = test: self-aminoacylation, catalytic enhancement (BWO) (fold over background); higher = more active; k-Seq, kA / k0A0; sequences stand for … in GGGAAUGGAUCCACAUCUACGAAUUC…UUCACUGCAGACUUGACGAAGCUG
Summary of the method: as §1

biotinyl-Val-oxazolone = test: self-aminoacylation, catalytic enhancement (BVO) (fold over background); higher = more active; k-Seq, kA / k0A0; sequences stand for … in GGGAAUGGAUCCACAUCUACGAAUUC…UUCACUGCAGACUUGACGAAGCUG
Summary of the method: as §1

biotinyl-Leu-oxazolone = test: self-aminoacylation, catalytic enhancement (BLO) (fold over background); higher = more active; k-Seq, kA / k0A0; sequences stand for … in GGGAAUGGAUCCACAUCUACGAAUUC…UUCACUGCAGACUUGACGAAGCUG
Summary of the method: as §1

| Sequence | self-aminoacylation (biotinyl-Phe-oxazolone) | self-aminoacylation (biotinyl-Met-oxazolone) | self-aminoacylation (biotinyl-Ile-oxazolone) | self-aminoacylation (biotinyl-Trp-oxazolone) | self-aminoacylation (biotinyl-Val-oxazolone) | self-aminoacylation (biotinyl-Leu-oxazolone) |
| --- | --- | --- | --- | --- | --- | --- |
| CCACACCUCAAGCAAUCGAUC [Fam1B.1 aminoacylation ribozyme variant] | 0.758 | 0.442 | 0.643 | 0.298 | 0.76 | 0.553 |
| CCACACCUCAAGCAAUUGGUC [Fam1B.1 aminoacylation ribozyme variant] | 1.05 | 0.699 | 0.937 | 0.738 | 0.754 | 0.873 |
| CCACACCUCAAGCAGUCGGUC [Fam1B.1 aminoacylation ribozyme variant] | 0.725 | 1.02 | 1.34 | 1.02 | 1.6 | 1.47 |
| CCACACCUCAAGCCAUCGGUC [Fam1B.1 aminoacylation ribozyme variant] | 2.01 | 1.38 | 1.27 | 1.55 | 1.42 | 1.41 |
| CCACACCUUAAGCAAUCGGUC [Fam1B.1 aminoacylation ribozyme variant] | 0.93 | 1.15 | 1.16 | 0.714 | 1.19 | 1.03 |
| CCACACGUCAAACAAUCGGUC [Fam1B.1 aminoacylation ribozyme variant] | 1.2 | 1.2 | 1.21 | 1.83 | 1.34 | 1.45 |
| CCACACGUCAACCAAUCGGUC [Fam1B.1 aminoacylation ribozyme variant] | 1.24 | 1.07 | 1.09 | 1.32 | 1.47 | 1.17 |
| CCACACGUCAAGCAAUCGUUC [Fam1B.1 aminoacylation ribozyme variant] | 0.752 | 1.17 | 0.799 | 1.01 | 1.03 | 0.842 |
| CCACACGUCAAGCGAUCGGUC [Fam1B.1 aminoacylation ribozyme variant] | 1.06 | 1.14 | 1.21 | 1.61 | 2.3 | 1.11 |
| CCACACGUCAAUCAAUCGGUC [Fam1B.1 aminoacylation ribozyme variant] | 1.24 | 1.09 | 1.05 | 0.926 | 1.1 | 0.966 |
| CCACACGUCAGGCAAUCGGUC [Fam1B.1 aminoacylation ribozyme variant] | 3.26 | 1.33 | 1.38 | 1.93 | 2.52 | 1.81 |
| CCACACUACAAGCAACCGGUC [Fam1B.1 aminoacylation ribozyme variant] | 1.03 | 0.649 | 1.29 | 0.793 | 0.674 | 0.948 |
| CCACACUACAAGCAAUCGCUC [Fam1B.1 aminoacylation ribozyme variant] | 1.2 | 1.59 | 1.22 | 1.32 | 1.29 | 1.31 |
| CCACACUACAAGCAAUCGGUU [Fam1B.1 aminoacylation ribozyme variant] | 1.55 | 0.918 | 1.02 | 1.39 | 1.08 | 0.677 |
| CCACACUACAAGCAUUCGGUC [Fam1B.1 aminoacylation ribozyme variant] | 3.61 | 2.58 | 2.14 | 2.04 | 2.71 | 1.73 |
| CCACACUACAAUCAAUCGGUC [Fam1B.1 aminoacylation ribozyme variant] | 1.18 | 0.663 | 0.797 | 0.811 | 0.877 | 0.688 |
| CCACACUCCAAGCAAUCAGUC [Fam1B.1 aminoacylation ribozyme variant] | 1.54 | 0.699 | 0.781 | 0.672 | 0.911 | 0.73 |
| CCACACUCCAAGCACUCGGUC [Fam1B.1 aminoacylation ribozyme variant] | 0.642 | 1.32 | 1.35 | 0.831 | 1.24 | 0.768 |
| CCACACUCGAAGCAAUCGGUC [Fam1B.1 aminoacylation ribozyme variant] | 1.07 | 1.1 | 1.2 | 0.864 | 1.11 | 0.764 |
| CCACACUGCAAGCAAUCAGUC [Fam1B.1 aminoacylation ribozyme variant] | 1.1 | 0.584 | 0.79 | 0.551 | 0.741 | 0.852 |
| CCACACUGCAGGCAAUCGGUC [Fam1B.1 aminoacylation ribozyme variant] | 5.92 | 1.76 | 1.44 | 1.38 | 2.17 | 1.57 |
| CCACACUGCAUGCAAUCGGUC [Fam1B.1 aminoacylation ribozyme variant] | 0.714 | 0.803 | 0.875 | 0.659 | 0.857 | 0.507 |
| CCACACUGGAAGCAAUCGGUC [Fam1B.1 aminoacylation ribozyme variant] | 0.508 | 0.78 | 0.881 | 0.543 | 1.08 | 0.737 |
| CCACACUUAAAGCAAACGGUC [Fam1B.1 aminoacylation ribozyme variant] | 0.924 | 0.502 | 0.685 | 0.578 | 0.765 | 0.616 |
| CCACACUUAAAGCAAUAGGUC [Fam1B.1 aminoacylation ribozyme variant] | 1.24 | 0.509 | 0.67 | 0.592 | 0.913 | 0.662 |
| CCACACUUAAAGCAAUCUGUC [Fam1B.1 aminoacylation ribozyme variant] | 0.686 | 0.391 | 0.463 | 0.349 | 0.676 | 0.414 |

| Sequence | self-aminoacylation (biotinyl-Phe-oxazolone) | self-aminoacylation (biotinyl-Met-oxazolone) | self-aminoacylation (biotinyl-Ile-oxazolone) | self-aminoacylation (biotinyl-Trp-oxazolone) | self-aminoacylation (biotinyl-Val-oxazolone) | self-aminoacylation (biotinyl-Leu-oxazolone) |
| --- | --- | --- | --- | --- | --- | --- |
| CCACACUUCAAACAAACGGUC [Fam1B.1 aminoacylation ribozyme variant] | 0.66 | 0.626 | 0.692 | 0.471 | 0.697 | 0.598 |
| CCACACUUCAAACAAGCGGUC [Fam1B.1 aminoacylation ribozyme variant] | 0.971 | 0.68 | 0.922 | 0.603 | 0.746 | 0.728 |
| CCACACUUCAAACAAUCGGUC [Fam1B.1 aminoacylation ribozyme variant] | 102 | 1.46 | 1.38 | 47 | 1.53 | 2.32 |
| CCACACUUCAACCAAUCCGUC [Fam1B.1 aminoacylation ribozyme variant] | 1.33 | 0.672 | 1.07 | 0.919 | 0.867 | 0.784 |
| CCACACUUCAACCAAUCGGAC [Fam1B.1 aminoacylation ribozyme variant] | 2.28 | 0.789 | 0.897 | 1.26 | 1.02 | 0.981 |
| CCACACUUCAACCAAUCGGUG [Fam1B.1 aminoacylation ribozyme variant] | 4.06 | 3.66 | 3.05 | 5.38 | 2.91 | 6.37 |
| CCACACUUCAACCAUUCGGUC [Fam1B.1 aminoacylation ribozyme variant] | 6.93 | 1.52 | 1.51 | 1.98 | 1.35 | 1.25 |
| CCACACUUCAACGAAUCGGUC [Fam1B.1 aminoacylation ribozyme variant] | 11.2 | 1.03 | 0.873 | 9.08 | 1.09 | 0.962 |
| CCACACUUCAAGAAAUCGGAC [Fam1B.1 aminoacylation ribozyme variant] | 0.823 | 0.663 | 0.898 | 0.393 | 0.685 | 0.572 |
| CCACACUUCAAGAUAUCGGUC [Fam1B.1 aminoacylation ribozyme variant] | 0.633 | 0.624 | 0.774 | 0.657 | 0.795 | 0.736 |
| CCACACUUCAAGCAAACAGUC [Fam1B.1 aminoacylation ribozyme variant] | 1.09 | 0.609 | 0.816 | 0.375 | 0.757 | 0.674 |
| CCACACUUCAAGCAAACGGUU [Fam1B.1 aminoacylation ribozyme variant] | 1.41 | 1.25 | 1.32 | 0.973 | 1.59 | 1.34 |
| CCACACUUCAAGCAACCGGAC [Fam1B.1 aminoacylation ribozyme variant] | 0.734 | 0.839 | 1.15 | 0.606 | 1.07 | 0.602 |
| CCACACUUCAAGCAAGCUGUC [Fam1B.1 aminoacylation ribozyme variant] | 0.716 | 0.451 | 0.504 | 0.346 | 0.565 | 0.404 |
| CCACACUUCAAGCAAUACGUC [Fam1B.1 aminoacylation ribozyme variant] | 1.36 | 0.457 | 0.705 | 0.556 | 0.925 | 0.563 |
| CCACACUUCAAGCAAUCAGCC [Fam1B.1 aminoacylation ribozyme variant] | 3.01 | 0.884 | 1.04 | 2.26 | 1.72 | 1.51 |
| CCACACUUCAAGCAAUCAGUA [Fam1B.1 aminoacylation ribozyme variant] | 1.17 | 0.861 | 0.983 | 0.842 | 0.842 | 0.899 |
| CCACACUUCAAGCAAUCAGUU [Fam1B.1 aminoacylation ribozyme variant] | 2.42 | 0.802 | 1.15 | 1.12 | 1.29 | 0.925 |
| CCACACUUCAAGCAAUCAUUC [Fam1B.1 aminoacylation ribozyme variant] | 1.64 | 0.539 | 0.649 | 0.686 | 0.671 | 0.56 |
| CCACACUUCAAGCAAUCCCUC [Fam1B.1 aminoacylation ribozyme variant] | 0.896 | 0.846 | 1.04 | 1.35 | 1.15 | 0.729 |
| CCACACUUCAAGCAAUCCGUC [Fam1B.1 aminoacylation ribozyme variant] | 1.34 | 0.659 | 0.894 | 0.828 | 1.01 | 0.664 |
| CCACACUUCAAGCAAUCGCUA [Fam1B.1 aminoacylation ribozyme variant] | 1.05 | 1.22 | 1.41 | 1.27 | 1.94 | 1.44 |
| CCACACUUCAAGCAAUCGCUG [Fam1B.1 aminoacylation ribozyme variant] | 0.653 | 1.13 | 1.22 | 0.872 | 1.12 | 0.928 |
| CCACACUUCAAGCAAUCUAUC [Fam1B.1 aminoacylation ribozyme variant] | 0.891 | 0.422 | 0.557 | 0.287 | 0.683 | 0.533 |
| CCACACUUCAAGCAAUCUGUG [Fam1B.1 aminoacylation ribozyme variant] | 0.656 | 0.547 | 0.514 | 0.383 | 0.635 | 0.657 |
